Experimental data: the nanobody polyreactivity screen of Harvey et al. (2022)

test: yeast display, Sf9 membrane polyspecificity reagent, FACS + sequencing; frameworks hold sequencing errors
In short: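 A nanobody's polyreactivity label depends on the gate it was sorted from. Yeast display cells were stained with 10% biotinylated, detergent-solubilized Sf9 membrane reagent for 1 hour at 4 °C, enriched on streptavidin microbeads and sorted by FACS. The low and high (top ~1%) gates were set on anti-HA fluorescence for expression and streptavidin fluorescence for reagent binding.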

Sequence	polyreactivity (PSR sort gate)
QVQLVESGGGLVQAGGSLRLSCAASGSTFYRYAMGWYRQAPGKERELVATITNSGGSTYYADSVKGRFTISRDNAKNTVYLQMNSLKPEDTAVYYCARVRSRNTGYYYWGQGTQVTVSS	high polyreactivity
QVQLVESGGGLVQAGGSLRLSCAASGSTFYRYTMGWYRQAPGKERELVAAISRGGDSTYYADSVKGRFTISRDNAKNTVYLQMNSLKPEDTAVYYCAANVGARKFGYEYNYWGQGTQVTVSS	high polyreactivity
QVQLVESGGGLVQAGGSLRLSCAASGSTFYRYTMGWYRQAPGKERELVAAISRSGGRTYYADSVKGRFTISRDNAKNTVYLQMNSLIPEDTAVYYCNAEIASSAVQAQEGDYWGQGTQVTVSS	high polyreactivity
QVQLVESGGGLVQAGGSLRLSCAASGSTFYSNAMGWYRQAPGKERELVAAINRGSSTYYADSVKGRFTISRDNAKNTVYLQMNSLKPDDTAVYYCAVDYFWYEMDYWGQGTQVTVSS	low polyreactivity
QVQLVESGGGLVQAGGSLRLSCAASGSTFYSNAMGWYRQAPGKERELVDSISWSSGSTYYADSVKGRFTISRDNAKNTVYLQMNSLKPEDTAVYYCATDAGGPYRFGYWGQGTQVTVSS	low polyreactivity
QVQLVESGGGLVQAGGSLRLSCAASGSTFYSNTMGWYRQAPGKERELVAAITRSGGSTYYADSVKGRFTISRDNAKNTVYLQMNSLKPEETAVYYCNTGYKTRALYWPYDYWGQGTLVTVSS	high polyreactivity
QVQLVESGGGLVQAGGSLRLSCAASGSTFYSYAMGWYRQAPGKERELVAAISWRGGTTYYADSVKGRFTISRDNAKNTVYLQMNSLKPEDTAVYYCNARFYRWRSYGYDYWGQGTQVTVSS	high polyreactivity
QVQLVESGGGLVQAGGSLRLSCAASGSTFYSYAMGWYRQAPGKERELVAAITSRGDRTYYADSVKGRFTISRDNAKNTVYLQMNSLKPEDTAVYYCAAEQSWQGYAYYYWGQGTQVTVSS	high polyreactivity
QVQLVESGGGLVQAGGSLRLSCAASGSTFYTNAMGWYRPAPGKEREFVAAISWSGSSTYADSVKGRFTISRDNAKNTVYLQMNSLKPEDTAVYYCAADWFKLRTDYYWGQGTQVTVSS	low polyreactivity
QVQLVESGGGLVQAGGSLRLSCAASGSTFYTNAMGWYRQAPGKERELVAAINRSGGRSYYADSVKGRFTISRDNAKNTVYLQMNSLKQEDTAVYYCAARYPLRISTDTARDYYWGQGTQVTVSS	low polyreactivity
QVQLVESGGGLVQAGGSLRLSCAASGSTFYTNDMGWYRQAPGKERELVAAITSSGNTNYADSVKGRFTISRDNAKNTVFLQMNCLKPEDTAVYYYYYYQYDYWGQGTQVTVSS	low polyreactivity
QVQLVESGGGLVQAGGSLRLSCAASGSTFYTYAMGWYRQAPGKEMELVADITRGGSTYYADSVKGRFTISRDNAKNTVYLQMNSLKPEDTAVYYCAADYTWLSFFEFDYWGQGTQVTVSS	high polyreactivity
QVQLVESGGGLVQAGGSLRLSCAASGSTFYTYAMGWYRQAPGKERELVAAISYRGGSTYYADSVKGRFTISRDNAKNTVYLQMNSLKPEDTSVYYCKVDGVVVGTKRGGYDYWGQGTQVTVSS	low polyreactivity
QVQLVESGGGLVQAGGSLRLSCAASGSTFYTYAMGWYRQAPGKERELVAAITFSGDSKYYADSVKGRFTISRDNAKNTVYLQMNSLKPEDTAVYYCAALQKRYYRSWVGYDYWGQGTQVTVSS	high polyreactivity
QVQLVESGGGLVQAGGSLRLSCAASGSTFYTYAMGWYRQAPGKERELVARIRWSVGSTYYADSVKGRFTISRDNAKNTVYLQMNSLKPEDTAVYYCAADYYKRYKYLYDYWGQGTQVTVSS	high polyreactivity
QVQLVESGGGLVQAGGSLRLSCAASGSTFYTYDMGWYRQAPGKERELVAAISRRDGITYYADSVKGRFTISRDYATNTVYLQMNSLNPEDSAVYYCAAEDAYRYYDFDYWGQGTQVTVSS	low polyreactivity
QVQLVESGGGLVQAGGSLRLSCAASGSTFYTYPMGWYRQAPGKERELVAAISYRGGSTYYADSVKGRFTISRDTAKNTVYLQMNSMKPEDSAVYYCNVVGVVVGTKRGGYDYWGQGTHVTVSS	low polyreactivity
QVQLVESGGGLVQAGGSLRLSCAASGSTFYVNAMGWYRQAPGKERELVAAITSGGSTKYADSVKGRYTISCDNAKNTVYLQMNSLKPEDTAVDDCAAPRGRALSKVRYDDEYWGQGTQVTVSS	high polyreactivity
QVQLVESGGGLVQAGGSLRLSCAASGSTFYVNAMGWYRQTPGKEREFVAAITWNSGSTYYADSVKGRFTISRDNEKNTVYLQMNSLKPEDTAVYYCAAVLSVRVYGYDYWGQGTQVTVSS	low polyreactivity
QVQLVESGGGLVQAGGSLRLSCAASGSTFYVNAMGWYSQAPGKEREFVAAITWNSGSTYYADSVKGRFTISRDNAKNTVYLQMNSLKPEDTAVYYCAAVLSVRVYGYDYWGQGTQVTVSS	low polyreactivity
QVQLVESGGGLVQAGGSLRLSCAASGSTFYVNVMGWYRQAPGKERELVAGITIRDGSTYYADSVKGRFTISRDNAKNTVYLQMNSLKPEDTAVYYCARAGDGEYKRDYWGQGTQVTVSS	low polyreactivity
QVQLVESGGGLVQAGGSLRLSCAASGSTFYVYAMGWYRPAPGKERELVATISSSGAITYYADSVKGRFTISGDNAKNTVYLQMNSLKPEDTAVYYCARTGSLLSQVWYNYWGQGTQVTVSS	low polyreactivity

Sequence	polyreactivity (PSR sort gate)
QVQLVESGGGLVQAGGSLRLSCAASGSTFYVYAMGWYRQAPGKERELVAAISKRGGTTYYADSVKGRFTISRDNAKNTVYLQMNSLKPEDTAVYYCATVSSSRDHDYWGQGTQVTVSS	high polyreactivity
QVQLVESGGGLVQAGGSLRLSCAASGSTFYVYAMGWYRQAPGKERELVAAITVRGGSTYYADSVKGRFTISRDNAKKTVYLQMNSLKPEDTAVYYCNAEGTYGYWRSYNYWGQGTQVTVSS	high polyreactivity
QVQLVESGGGLVQAGGSLRLSCAASGSTFYVYAMGWYRQAPGKERELVAGITDSGGSTYADSVKGRFTISRDNAKNTVYLQMNSLKPEVTAVYYCAADGETLTPRILGESEGDYWGQGTQVTVSS	low polyreactivity
QVQLVESGGGLVQAGGSLRLSCAASGSTFYVYVMGWYRQAPGKERELVAVIDWRGGSTYYADSVKGRFTISRDNAKNTVYLQMNSLKPEDTAVYYCNKDAQFYYKLPYYKERDWGQGTQVTVSS	low polyreactivity
QVQLVESGGGLVQAGGSLRLSCAASGSTFYWYAMGWYRQAPGKERELVAAITSTGGSTYADSVKGRFTISRDNAKNTVYFQMNSLKPEDTAVYYWNVDTSSPSRRDYDYWGQGTQVTVSS	low polyreactivity
QVQLVESGGGLVQAGGSLRLSCAASGSTFYWYAMGWYRQAPGKERQLVAAITRNAGSTYYADTVKGRFTISRDNAKNTVYVQMNSLKPEDTAVSYCAADGARSAFLLAYYYWGQGTQVTGSS	low polyreactivity
QVQLVESGGGLVQAGGSLRLSCAASGSTFYYHGRGWSRQAPGKERELVAVISISGGSTYYADSVKGSFTISRDNAKNTVDLQMNSLKPEDTAVYYCATSYVGRSAYRSYGARGGYWGQGTQVTVSS	low polyreactivity
QVQLVESGGGLVQAGGSLRLSCAASGSTFYYNAMGCYRQAPGKERELVAAISSDGSTNYADSVKGRFTISRDNAKNTVYLQMNSLKPEDTAVYYCAAENIVYVRSNWYWGYDYWGQGTQVTVSS	low polyreactivity
QVQLVESGGGLVQAGGSLRLSCAASGSTFYYNAMGWYRQAPGKEREFVASISWRGGRTYYADSVKGRFTISRDNAKNTVYLQMNSLKPEDTAVYYCAKGYLALGQPDDYWGQGTQVTVSS	high polyreactivity
QVQLVESGGGLVQAGGSLRLSCAASGSTFYYNAMGWYRQAPGKERELVAAISKRGGTTSYADSVKGRFTISRDNAKNTVFLQMNSLKPEDTAVYYCAAQTYLRQFYRYDWGQGTQVTVSS	high polyreactivity
QVQLVESGGGLVQAGGSLRLSCAASGSTFYYNAMGWYRQAPGKERELVARISRSGGSTYADSVKGRFTISRDNAKNTVYLQMNSLIPEDTAVYYCNADAYGTPEFTSYAVRYDYWGQGTQVTVSS	low polyreactivity
QVQLVESGGGLVQAGGSLRLSCAASGSTFYYNAMGWYRQAPGKERELVASISRSGGSTYADSVKGRFTISRDNAKNTVYLQMNSLKPVDTAVYYCNADAYGTPEFTSYAVRYDYWGQGTQVTVSS	low polyreactivity
QVQLVESGGGLVQAGGSLRLSCAASGSTFYYNSMGWYRQAPGKERELVARISRSGGSTYADSVKGRFTISRDNAKNTVYLQMNSLKPEDTAVYYCAKDYAPSATKLHYWGQGTQVTVSS	low polyreactivity
QVQLVESGGGLVQAGGSLRLSCAASGSTFYYNVMGWYRQAPGKERELVAAISNAGTTNYADSVKGRFTISRDNAKNTVYLQMNSLKPEDTAVYYCNAEFIGPEGYWWYIEYYYWGQGTQVTVSS	low polyreactivity
QVQLVESGGGLVQAGGSLRLSCAASGSTFYYYAMGGYRQAPGKERELVAAISISDNSTYYADSVKGRFTSSRDNAKNTVYLQMNSLKPEDTAVYYCAAYGWYAHDDSTYDYWGQGTQVTVSS	low polyreactivity
QVQLVESGGGLVQAGGSLRLSCAASGSTFYYYAMGWSRPAPGKERELVAAISTRGGSTYYADSVKGRFTISRDNAKNTVYLQMNSLKPEDTAVYYCAKKYGYFGLHGYWGQGTQVTVSS	high polyreactivity
QVQLVESGGGLVQAGGSLRLSCAASGSTFYYYAMGWSRQAPGKERELVAAITRGGSTYYADSVKGRFTISRDNAKNTVYLQMNSLRPEDTAVYYCAAKSAYHGLVGGYYYWGQGTQVTVSS	high polyreactivity
QVQLVESGGGLVQAGGSLRLSCAASGSTFYYYAMGWYRQAPGKEREFVAAITWSGGSTYYADSVKGRFTISRDNAKNTVYLQMNSLKQEDTGVYYCAKDQRYYYYGGGDYWGQGTQLTVSS	low polyreactivity
QVQLVESGGGLVQAGGSLRLSCAASGSTFYYYAMGWYRQAPGKERELVAAISKSGGSTYYADSVKGRFTISRDNAKNTVYLQMNSLKPEDTAVYYCAARGRYISDYWGQGTQVTVSS	high polyreactivity
QVQLVESGGGLVQAGGSLRLSCAASGSTFYYYAMGWYRQAPGKERELVAAITYSGGGTYYADSVKGRFTISRDNAKNTVYLQMNSLKPEDTAVYYCAKTIAVNTWYYYWGQGTQVTVSS	low polyreactivity
QVQLVESGGGLVQAGGSLRLSCAASGSTFYYYAMGWYRQAPGKERELVASISFSGGSTYYADSVKGRFTISRDNAKNTVYLQMNSLKPEDTAVYYCGYYYWGQGTQVTVSS	low polyreactivity
